Test: protease stability score; higher = more stable; yeast display proteolysis, trypsin and chymotrypsin;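 also: log10 excess protease needed over predicted unfolded state with 0 meaning unfolded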

DEEKQAKTALKRYKDAIKDGDEELAKRLFDKHARIEIGDKEVHGREEIARRIREMVERADHIDIKLQSMRVRGDHIRLELTMTVNINGKKEKSRFQFVMQRRGDEVYVTSMHQT
protease stability score: -0.003

DEEKQDTWAKEFVKMLKQGNKTDARRLFDPNATLEYGDKRVHGREQAVEAQKQRSDKVDHMQVDSVSAHNGKMDIDLVLNVNGERKRQRVVANIHNGKIKYFSVQDS
protease stability score: -0.248

DEEKQEQVLRDQNTNDPDQMERLLDENVKVDVGDEEIHGRETVVKFLRHFIDRIDHVDVRELSVRNGRFHIEVVYTFDGRRMRYILHMEVKDGHVKYQQIQATSDEDKKRLDEMES
protease stability score: 2.38

DEEKQKEYADRFNEILKSGNEDEFRKMADEDVTAQYGDKEVHGREEVTKTMSRFLRTVDKIKVDSVEVHNGRVIIHFVVRVNGQDQRVVMEFKVHNGKIKELVMRSQ
protease stability score: 1.51

DEEKQSTRALQMLHNIATGNEREAQKLMDEDVKLQVGDKHLHGKEQVRHRIHELLRTVDHMDVKDMHYSGDHVSVTAIARVNGQNQHVELSAHVSNGTIKDIRVRYS
protease stability score: 1.25

DEEKRAEDFFRKLLQVMETGDEDKQRKMADPNARVIIGEKTFHGRENMAKAMKELRDRVDSIEFDLREIETEPGRIVINVVVILDHDGDKDERELNIRAKITGDTLVLEEIKDT
protease stability score: -0.309

DEEKRAKTIVKKIHKAWTHNDERTFKNMADPNAEVRVGDQTYHGMEQWQREQAKRAQNYDHVDFDVKNVEVKGEKVDILMEFQMNDNGKNDTERRVVVVVDVNGQDRIRSVHKG
protease stability score: -0.256

DEEKRKHAREILKVEETGNPDDLKELFDPNAKFEYGDKTFHGMTDFRQHHERVRKEMHIDIKSVSVSVHNGQAQVDVQYEHEHNGRPDSKRANRTFDIRNGRVQSATQKDDQ
protease stability score: -0.537

DEEKRREFAKFAMNVVQTGDPREFSKMADPNAKFDIGDKVFHGREKAVKHWEEYSQRVDHIQIQDVKFQGNEIHILAQDRHNGRDRSVVWVVTVHNGRAKYVSVDDN
protease stability score: 0.027

DEEKVAKRFLDNWVRALHHNNEKQFKKMLPPDARVEIGDKTYNGREQVVTFFAEWAKQFDHISLDLKDMRVHNGTMDIDVKVVANDNGKNEHMRVVYVIEIKGDEATFRSATHK
protease stability score: 1.87

DEEKVAQKFAEEMNKVWEQGDPDRMAELADEDVRMKYGDKEIHGRDDVEDHLRTVFKEVDSASIDVKRVSNHNGRVDIKASITMRDNGSHSNTNIDIKAEVSGDKVKLKEQHHQ
protease stability score: -0.067

DEEKVFQVLVKMVQYYVSGDAEKVKKLGKDDAKVKAVDVEYRGLEQVEKAVEQFKRYGVKLQLTDHKEDGDRVDAKLVLHLGGTTWEFRVTVRADGGKVDELKVEVSDEVMKRIQDG
protease stability score: 0.471

DEEKVHKQAHDYRTALQRGDPDRAAHLIDKHARIRVGDHTVNGRTQFKKMMEQLHTRIDKIEFKDVDVQGNKVNINIVVEVNGRRVEVTVDLDVQGDRVKQAVLTFRDPDNAKQMLG
protease stability score: -0.111

DEEKVKEIAKNFADAMRNGDPDQASKLLDPNAKIHVGEFNYKGREAANRMAKTMRDQFDHLDIKSIEVSGNSIKIEAQLHYNGQTIDIELFITVHNGHIESVTLHYRNEEDEEKLQS
protease stability score: 1.08

DEEKVKKLLEQMVRAYVSGHAEEVKKLGKDDGELHAGDQTYHGKEQIYKVVKKFKEYGVQLQITDMKYDGDRLDVKAELHHGGTTWEFRVTVQADGGKVDRLQVDVSEEAKKTIKHG
protease stability score: 1

DEEKVKLASEIWKAFDRNNPDRVEELIDPNARFQYGDKKYHGMEQAKNHIKKILDDANIHIKSISMTDHNGKVRAEVEFVRNHNGKPQTDRVEMSAEFTNGRVTHFEVTEVP
protease stability score: 0.871

DEEKVKNHILEALNAMMTGDPDKVRRMVDKDARLRIGEKVFHGREEVSKAAEEFREQFDHITITDYRVEPGHARVHAVINVNGKNVEITIKATATNGKIQRIVLDPRAVERLKS
protease stability score: 0.926

DEEKVKRLLKRVAEDYVSGDAETVRKLGKDDAELEVGNTTYHGKEQMYKVVEEFKKYGVRLQVRNAEVRGNKVTMEVDLDMGGDTWKFTVHVEADGGKADKVKIDVSEEVKKRIEHG
protease stability score: 0.291

DEEKVKVARKFMEVVKENNEEDAHRLASENVDVVVGDKRLHGRSNLMRKLRKEREEWRFRISIKDIKVENGRVHIHFKVQRVVNGQPQTYEQRMVMVFHNGRVKSVHYRIPEEQLNRIES
protease stability score: 0.463

DEEKVNERFFTKMKKAHEHGDPDQLRTLFDPNVKVRYGDKSITGRENVVKHIKKLLDEADSVSIQLKRVRVSGNKFSFDVVVSFNINGKHDNQRVIIVAEQHNGHARVKSVQQK
protease stability score: 0.949

DEEKVQDHNRKLWKLMKTGDSDQLRREMPPTAHAHVGDKSWHGSEAQNAMQEQARMQVDHLEVKKVDVTGDKIHQNVVRKENGRTENRVFAFQVDNGEIKQVEIRRS
protease stability score: -0.146

DEEKVRHQATRFFKALQTNDEDHAVKLADENVRIVIGDKTLRGREDLKDFVRKIKNQADRVELKSVEVHGNKAKLDFIVHVNGRRVKITMVIEVDNGRVSQLELNPHDVRKMEQ
protease stability score: 1.42

DEEKVSEAHEFMQDVQNGDEKSLNDLMDKNDEVNVGDKTVHGREDFTRQFQKRRKELRLNIQSVSATRHGDSVVVHVQAQRNHNGNPEESRYVVILSKHNGRIQNVDVKEDK
protease stability score: 0.919

DEEKVVKKHVEDLRENWRTNNEDELMKLAPPDVRVEVGDTEIHGHDQLRHWAQEMSDRIDHLEVDFRSFELENGRAEVNAKVVNNHNGKEDTNSVNITAEVQGDRMKIESMKVK
protease stability score: -0.492

DEEKVVKVLKQALEAVQKGNQERVRKLGKPDVEVEAVNIREKGPEALRKAAQYVQKLGDKFEYKEEREEGDKVTTKVDVTRGGQTVTYQVDVVAEGGKVKEWVVNFSDTFAERVKKS
protease stability score: -0.268

DEEKYKRLFRKVFEAAIKGDEEKVKKFGKPNVKYEYADKQYEGPEAMKHVVDLAKKVGAEVKTREQEVKGNTAKAKFQYKLGDRTVQTTVEVKYEGDKVKEARVKLTDEVKKILHQG
protease stability score: 0.065

DEELADKMRKWWQNVHQGNHDHIREMVDPNVKFQVGNKQYHGRETMSSLVVELKREITFRVDRMSASVHNGRLHVRLDIKYEVNGQPDRENLRIEANIHNGKIKSLSVQMDNEKLKKLHK
protease stability score: 1.03

DEELADLAHKLLEAYHTGNPDDVVRNMDPNARQTIGDRTVHGRENIKKMLRKVLQEWRIDIHLRSYHLNGNQVKLSADFNLTVNGKPDEFTATIIVIQHNGKIHEVQLRMPEQDFREITS
protease stability score: 1.05

DEELAHKIAKLMETNNFQDMAKQADENATAVVGDFKVRGRSQLETLMQRFLDQIDHFEVKSWHIDNGNVHVNFVASVNGRTIEAQVIIHVSNGRIKSIELRVRNQDVQKHLRNMLS
protease stability score: 1.05

DEELAKHFERVVRENNPDELQKQFDEDARVSVGNKRYHGREKVNDAIKRFMTNADEIRIEDIEIHGETIKVVYRFRVDGQSARVVMVVNIKDGRVKEMKISATDPRDVKVLDEVME
protease stability score: 1.7

DEELAKIVLRLLQAEENGDERTLQENADPNVTINVGEKRIRGMETYAKEVTERRKRMRVEVDVKDYRNHGEHVVIVNTRLNESNGKPHRNRMQFVIHAHNGRITKISDNTDS
protease stability score: -0.009

DEELAKKVLEKWVKVVDKGDDQAVKKLYKPNGTWINGDEETQGAEKVVKMMQKAQKKGDQFQVRKAKVEGNHVEFHYDLRIGDQTATFTVKVQVQGGRVEEVKVEVDKKAKEIITKG
protease stability score: 0.06

DEELAKNLKEWWDVLKTGDTDRLKEMADPNAKFQIGDQTIHGMDRFVKEQVHHMQQMRFEIKVDSFSAHDGRIDIDAVQRVRVNGVPIDYTVKIRAEAHNGKWKSMELEIPENVVRELER
protease stability score: 1.27

DEELDKRIVDALHAIQKGDERRLRQLFDKNVSFKVGDEEYHGMENYAKDQKRRRDKIRVQLQSVDAKHQGDRAHVDVQRELDINGRPRTVRMIVVAHAKNGRVKNMSMNVDPKEIRELDT
protease stability score: -0.159

DEELEDLASRIWKAIDHNNPDELKRNFDENVNAQVGDTTYHGMDDWAREIVHNLKEMRIHWSDMRVSKQGEQVRIKARFVTKHNGRPQNMRMTAVFEAHNGRVQDYKQNNRG
protease stability score: -0.27

DEELEDRWRKMLEARKTGDEDRIKENMDPNAELNVGDKTYHGHDKLAKTLVDEMRTIRVEYKKFSMDARGDTVEAKYRVIENHNGKPQEDTHRWSATNRGDKIQHVDVRSDK
protease stability score: -0.435

— the NTF2 design screens of Basanta et al. (2020)
